Assay [1] concerns the target T1, human TWEAK receptor (human, UniProt Q9NP84 28-129).
T1 construct: Expressed on COS cells from an expression vector; The entry includes the signal peptide
T1 sequence: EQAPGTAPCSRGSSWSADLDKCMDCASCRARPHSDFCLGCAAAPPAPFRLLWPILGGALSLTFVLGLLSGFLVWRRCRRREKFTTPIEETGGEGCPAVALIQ
The assay can be described thus: slide binding on transfected COS cells, I-125 anti-leucine-zipper antibody, autoradiography. As for the experimental part:
(§1) Slides of COS cells were transfected with expression vectors containing TWEAKR, DR3, or vector without insert (control). After two days the cells were incubated with concentrated supernatants from CV-1 cells transfected with a vector encoding the leucine zipper TWEAK extracellular domain fusion protein. One hour later the cells were washed and probed with an I-125 labeled antibody against the leucine-zipper domain. The slides were washed, fixed, and autoradiography was performed using x-ray film. The TWEAKR transfected cells bound significant amounts of TWEAK. […] This experiment confirmed that the TWEAKR polypeptide identified in part A above, rather than DR3, is the major receptor for TWEAK. After discovery of the functional TWEAK receptor, other investigators also reported that DR3 is not the major receptor for TWEAK (Kaptein et al., FEBS Lett., 485(2-3): 135, 2000. The TWEAK-TWEAKR binding interaction was further characterized by Scatchard analysis.

Assay [2] has as its target T2, DR3 (UniProt Q93038 25-417, limits assumed).
T2 construct: whole, on cells; also called Apo3; WSL-1
T2 sequence (looked up): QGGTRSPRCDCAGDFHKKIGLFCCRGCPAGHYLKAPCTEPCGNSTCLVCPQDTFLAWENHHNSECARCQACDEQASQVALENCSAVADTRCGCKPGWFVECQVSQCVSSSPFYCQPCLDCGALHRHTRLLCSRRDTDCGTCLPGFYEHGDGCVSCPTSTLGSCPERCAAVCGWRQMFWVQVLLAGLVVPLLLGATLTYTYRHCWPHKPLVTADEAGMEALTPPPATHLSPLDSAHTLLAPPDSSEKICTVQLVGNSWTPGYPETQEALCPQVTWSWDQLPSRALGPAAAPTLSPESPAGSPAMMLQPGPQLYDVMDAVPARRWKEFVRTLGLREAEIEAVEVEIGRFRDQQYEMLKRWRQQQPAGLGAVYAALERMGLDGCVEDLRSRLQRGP
The description is as above. The procedure:
as §1

Data on one molecule can be found in US20050054047A1 (Amgen, published 2005).

B1: leucine zipper TWEAK extracellular domain fusion protein (ligand)
chain: not shown
notes: Used as concentrated supernatant from transfected CV-1 cells; also called LZ-TWEAK; pDC409-LZ-TWEAK product
On to B1, for which the binding result in assay [1] was “binds”; in assay [2], “no binding”.
